Here are results for one molecule from PMC5218472 (PLoS Biology, 2017).

In this test the test system is ADAM17. Description: PMA-induced ADAM17-mediated IL-6R ectodomain shedding in transiently transfected HEK293 cells, sIL-6R ELISA. Type of test: cell-based, human. As to conditions: for increase of sIL-6R after PMA (unstimulated = 1), mean: 100 nM PMA 2 h vs DMSO. The text has this:
Fig 4 Mutation of Val-356 is sufficient to block proteolysis of the IL-6R and the Asp358Ala variant. (A) Amino-acid residues from Asp-340 to Ala-370 of the human IL-6R. The identified cleavage site between Pro-355 (P1) and Val-356 (P1′) is indicated. (B) Overview of the six different IL-6R cleavage site mutants. Mutations are colored in either green or blue; the amino-acid residues of the wild-type cleavage site are shown in red. (C) HEK293 cells were transiently transfected with expression plasmids encoding the wild-type IL-6R (PV) or the double mutants (IE, DG) as indicated. Cells were either treated with 100 nM PMA for 2 h or DMSO as vehicle control. sIL-6R was precipitated from the supernatant with concanavalin A-covered sepharose beads, and the cells were lysed. Both were analyzed via western blot, and β-actin served as the loading control. One out of three experiments with similar outcomes is shown. (D, E) The experiment was performed as described under (C), but sIL-6R generation was analyzed via ELISA. In (D), the amount of sIL-6R generated after PMA stimulation of the wild-type IL-6R (PV) was set to 100%, and all other values were calculated accordingly. In (E), the amount of sIL-6R without stimulation was considered as constitutive shedding and set to 1, and the increase of sIL-6R was calculated. Data shown are the mean ± SD from at least three independent experiments (*p < 0.05, ns = no significant difference). (F–H) HEK293 cells were transiently transfected with expression plasmids encoding the wild-type IL-6R (PV) or the single mutants (DV, IV, PE, PG) as indicated. The experiments were performed as described in (C) to (E). (I) Overview of the four different IL-6R cleavage site mutants of the IL-6R Asp358Ala variant. Mutations are colored in either green or blue, the amino-acid residues of the wild-type cleavage site are shown in red, and the Asp358Ala single nucleotide polymorphism (SNP) is colored in orange. (J) ADAM17-mediated proteolysis of the IL-6R variants depicted in (I) were analyzed as described in (D). (K–M) Equal numbers of Ba/F3-gp130 cells were incubated for 48 h with increasing amounts (0–100 ng/ml) of either IL-6 or Hyper-IL-6. The stably transduced IL-6R variant is indicated above the diagram. One representative experiment out of three performed is shown (mean ± SD, biological triplicates).
Analysis of IL-6R ectodomain shedding in transiently transfected HEK293 cells or stably transduced Ba/F3-gp130 cell lines by ADAM10 and ADAM17 has been described elsewhere. Analysis of IL-6R proteolysis by CG has been described previously.
The sandwich ELISA, which detects sIL-6R as well as ds-sIL-6R (4-11/Baf227 antibodies) and can be used to quantify total sIL-6R serum levels, was described previously. To specifically detect ds-sIL-6R (either recombinant or in human serum), a similar approach was used (ds6R/Baf227). Both sandwich ELISAs were performed with streptavidin-horseradish peroxidase (R&D Systems, Minneapolis, Minnesota, US) and the peroxidase substrate BM blue POD (Roche, Mannheim, Germany). The enzymatic reaction was stopped by addition of 1.8 M sulfuric acid, and the absorbance read at 450 nm on a Tecan rainbow reader (Tecan, Crailsheim, Germany).
(In general: ELISA stands for enzyme-linked immunosorbent assay.)

B1: PV: wild-type human IL-6R, cleavage site Pro-355/Val-356 (protein)
chain: LAPRRCPAQEVARGVLTSLPGDSVTLTCPGVEPEDNATVHWVLRKPAAGSHPSRWAGMGRRLLLRSVQLHDSGNYSCYRAGRPAGTVHLLVDVPPEEPQLSCFRKSPLSNVVCEWGPRSTPSLTTKAVLLVRKFQNSPAEDFQEPCQYSQESQKFSCQLAVPEGDSSFYIVSMCVASSVGSKFSKTQTFQGCGILQPDPPANITVTAVARNPRWLSVTWQDPHSWNSSFYRLRFELRYRAERSKTFTTWMVKDLQHHCVIHDAWSGLRHVVQLRAQEEFGQGEWSEWSPEAMGTPWTESRSPPAENEVSTPMQALTTNKDDDNILFRDSANATSLPVQDSSSVPLPTFLVAGGSLAFGTLLCIAIVLRFKKTWKLRALKEGKTSMHPPYSLGQLVPERPRPTPVLVPLISPPVSPSSLGSDNTSSHNRPDARDPRSPYDISNTDYFFPR
modifications: N-linked glycans at Asn-55, Asn-93, Asn-221, Asn-245 and Asn-350, O-linked glycan at Thr-352 (mapped on sIL-6R shed from transfected HEK293 cells)
As to B1, for the setting “100 nM PMA 2 h, HEK293, ELISA, mean ± SD”, the “increase in sIL-6R generation compared to vehicle-treated cells” value is given as 3.6 ± 1.9 fold. Besides, the “sIL-6R in supernatant (PMA-stimulated PV = 100%), mean” value by setting is: (Fig 4D, 100 nM PMA, 2 h, mean of at least 3 independent experiments) 100%; (Fig 4D, DMSO vehicle, 2 h (constitutive shedding), mean of at least 3 independent experiments) 34.05%; (Fig 4G, 100 nM PMA, 2 h, mean of 3) 100%; (Fig 4G, DMSO, 2 h, mean of 3) 36.7867%. Besides, the “increase of sIL-6R after PMA (unstimulated = 1), mean” value runs as follows: (Fig 4E, mean) 3.59 fold; (Fig 4H, mean of 3) 2.73 fold.
